One data set concerns the target human thrombin (human, UniProt P00734;P00734 328-363;364-622). The experiment in a line: ITC. (Isothermal titration calorimetry measures the heat released or taken up as one component is titrated into another.)
The target in a further data set is alpha-thrombin (bovine, UniProt P00735;P00735 318-366;367-625). The experiment in a line: ITC.

The source of these data is paper PMC3107735.

As a reminder, the Kd is the constant that tells how readily two partners part at equilibrium. Low values mean higher affinity, high ones lower affinity. With GGTTGGTGTGGTTGG (structured_DNA) [thrombin-binding DNA aptamer (15-mer, Bock et al.)], in the data set with human thrombin, the binding result is on record as “binds”. In the data set with alpha-thrombin, this molecule displayed a Kd of 111 nM.
